Results on 94 variants are retold here after the supplement of paper PMC10567573.

B1: FBXO39 (parent)
chain: PSRVHASEVESAVWYVKKFGRYLE
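Also: lentivirally expressed fusions sorted by FACS into six bins by GFP to DsRed ratio, PSI derived from sequencing read proportions per bin multiplied by bin number.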

Variants of B1 are the subject of the data set. Briefly: protein stability index of a GFP-peptide fusion (GPS, HEK-293T) (PSI 1-6); higher = more stable. The following applies: c terminus: a fixed tail appended.
In the case of PSRVHASEVESAVWYVKKFDRYLE [G20D], the protein stability index came to 2.27.

As for PSRVHASEVESAVWYVKKFMRYLE [G20M], the protein stability index came out at 2.09.

Turning to PSRVHASEVESAVWYVKKFERYLE [G20E], the protein stability index came out at 2.95.

PSRVHASEVESAVWYVKKFHRYLE [G20H]: the protein stability index came out at 1.62.

Take PSRVHASEVESAVWYVKKFQRYLE [G20Q]: the protein stability index was found to be 2.55.

Turning to PSRVHASEVESAVWYVKKFPRYLE [G20P], the protein stability index was 1.64.

For the variant PSRVHASEVESAVWYVKKFWRYLE [G20W], the protein stability index came out at 2.97.

PSRVHASEVESAVWYVKKFYRYLE [G20Y]: the protein stability index amounted to 1.46.

Turning to PSRVHASEVESAVWYVKKFVRYLE [G20V], the protein stability index is 1.96.

Take PSRVHASEVESAVWYVKKFKRYLE [G20K]: the protein stability index was 2.19.

For PSRVHASEVESAVWYVKKFTRYLE [G20T], the protein stability index came to 1.28.

PSRVHASEVESAVWYVKKFNRYLE [G20N]: the protein stability index worked out at 2.38.

PSRVHASEVESAVWYVKKFLRYLE [G20L]: the protein stability index stood at 1.75.

Turning to PSRVHASEVESAVWYVKKFIRYLE [G20I], the protein stability index amounted to 1.91.

PSRVHASEVESAVWYVKKFSRYLE [G20S]: the protein stability index is 2.04.

As for PSRVHASEVESAVWYVKKFRRYLE [G20R], the protein stability index was 2.1.

Consider PSRVHASEVESAVWYVKKFARYLE [G20A], for which the protein stability index was determined as 3.14.

Turning to PSRVHASEVESAVWYVKKFFRYLE [G20F], the protein stability index was determined as 1.55.

For the variant PSRVHASEVESAVWYVKKFGRQLE [Y22Q], the protein stability index came out at 2.74.

As to PSRVHASEVESAVWYVKKFGRLLE [Y22L], the protein stability index was found to be 1.62.

For PSRVHASEVESAVWYVKKFGRPLE [Y22P], the protein stability index came out at 2.67.

Take PSRVHASEVESAVWYVKKFGRGLE [Y22G]: the protein stability index was found to be 2.85.

On to PSRVHASEVESAVWYVKKFGRWLE [Y22W], for which the protein stability index was 3.81.

With PSRVHASEVESAVWYVKKFGRVLE [Y22V], the protein stability index was 2.28.

Turning to PSRVHASEVESAVWYVKKFGRILE [Y22I], the protein stability index came to 1.85.

Regarding PSRVHASEVESAVWYVKKFGRSLE [Y22S], the protein stability index was determined as 2.58.

As for PSRVHASEVESAVWYVKKFGRELE [Y22E], the protein stability index came out at 2.58.

PSRVHASEVESAVWYVKKFGRTLE [Y22T]: the protein stability index came out at 2.03.

For PSRVHASEVESAVWYVKKFGRRLE [Y22R], the protein stability index was 2.98.

Regarding PSRVHASEVESAVWYVKKFGRHLE [Y22H], the protein stability index turned out to be 2.69.

Consider PSRVHASEVESAVWYVKKFGRFLE [Y22F], for which the protein stability index was determined as 1.91.

On to PSRVHASEVESAVWYVKKFGRCLE [Y22C], for which the protein stability index was 2.44.

As to PSRVHASEVESAVWYVKKFGRMLE [Y22M], the protein stability index stood at 2.1.

For the variant PSRVHASEVESAVWYVKKFGRKLE [Y22K], the protein stability index came out at 3.58.

On to PSRVHASEVESAVWYVKKFGRDLE [Y22D], for which the protein stability index was 2.89.

For PSRVHASEVESAVWYVKKFGRALE [Y22A], the protein stability index turned out to be 2.39.

PSRVHASEVESAVWYVKKFGRNLE [Y22N]: the protein stability index came to 2.71.

On to PSRVHASEVESAVWYVKKFGRYIE [L23I], for which the protein stability index amounted to 2.17.

Consider PSRVHASEVESAVWYVKKFGRYGE [L23G], for which the protein stability index is 1.48.

With PSRVHASEVESAVWYVKKFGRYDE [L23D], the protein stability index worked out at 2.9.

Take PSRVHASEVESAVWYVKKFGRYNE [L23N]: the protein stability index was 2.5.

For PSRVHASEVESAVWYVKKFGRYPE [L23P], the protein stability index was found to be 2.58.

As for PSRVHASEVESAVWYVKKFGRYFE [L23F], the protein stability index turned out to be 2.05.

As for PSRVHASEVESAVWYVKKFGRYWE [L23W], the protein stability index came out at 2.08.

For the variant PSRVHASEVESAVWYVKKFGRYVE [L23V], the protein stability index turned out to be 2.49.

For the variant PSRVHASEVESAVWYVKKFGRYKE [L23K], the protein stability index came to 3.07.

As for PSRVHASEVESAVWYVKKFGRYSE [L23S], the protein stability index was 2.76.

Turning to PSRVHASEVESAVWYVKKFGRYME [L23M], the protein stability index amounted to 2.09.

PSRVHASEVESAVWYVKKFGRYEE [L23E]: the protein stability index stood at 2.26.

In the case of PSRVHASEVESAVWYVKKFGRYRE [L23R], the protein stability index stood at 2.5.

For PSRVHASEVESAVWYVKKFGRYYE [L23Y], the protein stability index came out at 2.53.

On to PSRVHASEVESAVWYVKKFGRYCE [L23C], for which the protein stability index is 2.26.

Regarding PSRVHASEVESAVWYVKKFGRYQE [L23Q], the protein stability index worked out at 2.74.

As for PSRVHASEVESAVWYVKKFGRYAE [L23A], the protein stability index was 2.59.

For the variant PSRVHASEVESAVWYVKKFGRYTE [L23T], the protein stability index is 2.32.

Regarding PSRVHASEVESAVWYVKKFGRYHE [L23H], the protein stability index was 2.45.

As to PSRVHASEVESAVWYVKKFGNYLE [R21N], the protein stability index was 2.3.

As to PSRVHASEVESAVWYVKKFGWYLE [R21W], the protein stability index worked out at 2.08.

Take PSRVHASEVESAVWYVKKFGLYLE [R21L]: the protein stability index stood at 1.53.

For PSRVHASEVESAVWYVKKFGQYLE [R21Q], the protein stability index came to 2.09.

Take PSRVHASEVESAVWYVKKFGSYLE [R21S]: the protein stability index was determined as 2.22.

As for PSRVHASEVESAVWYVKKFGMYLE [R21M], the protein stability index was found to be 1.37.

Consider PSRVHASEVESAVWYVKKFGKYLE [R21K], for which the protein stability index was found to be 1.87.

Regarding PSRVHASEVESAVWYVKKFGTYLE [R21T], the protein stability index was 2.08.

On to PSRVHASEVESAVWYVKKFGIYLE [R21I], for which the protein stability index worked out at 2.19.

With PSRVHASEVESAVWYVKKFGGYLE [R21G], the protein stability index was found to be 2.42.

As to PSRVHASEVESAVWYVKKFGHYLE [R21H], the protein stability index amounted to 2.04.

For the variant PSRVHASEVESAVWYVKKFGDYLE [R21D], the protein stability index stood at 3.

As for PSRVHASEVESAVWYVKKFGCYLE [R21C], the protein stability index stood at 1.47.

Regarding PSRVHASEVESAVWYVKKFGAYLE [R21A], the protein stability index was 1.74.

For the variant PSRVHASEVESAVWYVKKFGFYLE [R21F], the protein stability index was 1.9.

As for PSRVHASEVESAVWYVKKFGVYLE [R21V], the protein stability index turned out to be 2.42.

As for PSRVHASEVESAVWYVKKFGYYLE [R21Y], the protein stability index was determined as 1.65.

On to PSRVHASEVESAVWYVKKFGEYLE [R21E], for which the protein stability index stood at 2.5.

For the variant PSRVHASEVESAVWYVKKFGPYLE [R21P], the protein stability index was 1.98.

Turning to PSRVHASEVESAVWYVKKFGRYLP [E24P], the protein stability index came to 2.26.

On to PSRVHASEVESAVWYVKKFGRYLW [E24W], for which the protein stability index was found to be 2.33.

Turning to PSRVHASEVESAVWYVKKFGRYLD [E24D], the protein stability index was 1.9.

With PSRVHASEVESAVWYVKKFGRYLL [E24L], the protein stability index turned out to be 1.54.

PSRVHASEVESAVWYVKKFGRYLG [E24G]: the protein stability index worked out at 1.94.

As for PSRVHASEVESAVWYVKKFGRYLH [E24H], the protein stability index was 1.94.

As for PSRVHASEVESAVWYVKKFGRYLY [E24Y], the protein stability index was found to be 2.2.

Turning to PSRVHASEVESAVWYVKKFGRYLQ [E24Q], the protein stability index was 1.99.

For PSRVHASEVESAVWYVKKFGRYLR [E24R], the protein stability index amounted to 2.22.

As to PSRVHASEVESAVWYVKKFGRYLN [E24N], the protein stability index worked out at 2.06.

As to PSRVHASEVESAVWYVKKFGRYLT [E24T], the protein stability index was determined as 2.55.

As to PSRVHASEVESAVWYVKKFGRYLI [E24I], the protein stability index was 2.01.

Turning to PSRVHASEVESAVWYVKKFGRYLM [E24M], the protein stability index was determined as 2.07.

Consider PSRVHASEVESAVWYVKKFGRYLK [E24K], for which the protein stability index was found to be 2.13.

With PSRVHASEVESAVWYVKKFGRYLC [E24C], the protein stability index worked out at 2.42.

On to PSRVHASEVESAVWYVKKFGRYLS [E24S], for which the protein stability index worked out at 1.83.

For PSRVHASEVESAVWYVKKFGRYLA [E24A], the protein stability index stood at 1.59.

On to PSRVHASEVESAVWYVKKFGRYLV [E24V], for which the protein stability index amounted to 1.74.

For the variant PSRVHASEVESAVWYVKKFGRYLF [E24F], the protein stability index came to 1.94.
